Changes are numbered by the printed parent chain.
B1: TR01H113-E2702GsKsc/GCH065-E2704sEpsc/L0011-k0 (bispecific antibody, human IgG4 S228P, kappa, N297A)
heavy 1: QVQLVESGGGVVQPGGSLRLSCAASGFTFSNAWMHWVRQAPGKGLEWVAQIKDKSQNYATYVAESVKGRFTISRADSKNSIYLQMNSLKTEDTAVYYCRYVHYAAGYGVDIWGQGTTVTVSSASTKGPSVFPLAPCSRSTSESTAALGCLVKDYFPEPVTVSWNSGALTSGVHTFPAVLQSSGLYSLSSVVTVPSSSLGTKTYTCNVDHKPSNTKVDKRVESKYGPPCPPCPAPEFRGGPKVFLFPPKPKDTLMISRTPEVTCVVVDVSQEDPEVQFNWYVDGVEVHNAKTKPREEQFASTYRVVSVLTVLHQDWLNGKEYKCKVSNKGLPSSIEKTISKAKGQPREPQVYTLPPSQKEMTKNQVSLTCLVKGFYPSDIAVEWESNGQPENNYKTTPPVLDSDGSFFLYSKLTVDKSRWQEGNVFSCSVMHEALHNRYTQKSLSLSP
heavy 2: QVQLVQSGAEVKKPGASVTVSCKASGYTFTDYEMHWIRQPPGEGLEWIGAIDGPTPDTAYSEKFKGRVTLTADKSTSTAYMELSSLTSEDTAVYYCTRFYSYTYWGQGTLVTVSSASTKGPSVFPLAPCSRSTSESTAALGCLVKDYFPEPVTVSWNSGALTSGVHTFPAVLQSSGLYSLSSVVTVPSSSLGTQTYTCNVDHKPSNTKVDKRVESKYGPPCPPCPAPEFRGGPKVFLFPPKPKDTLMISRTPEVTCVVVDVSQEDPEVQFNWYVDGVEVHNAKTKPREEQFASTYRVVSVLTVLHQDWLNGKEYKCKVSNKGLPSSIEKTISKAKGQPREPQVYTLPPSQEEMTKNQVSLTCLVKGFYPSDIAVEWESNGQPENNYKTTPPVLDSDGSFFLYSKLTVDKSRWQEGNVFSCSVMHEALHNHYTQESLSLSP
light: DIVMTQSPLSLPVTPGEPASISCRSSQPLVHSNRNTYLHWYQQKPGQAPRLLIYKVSNRFSGVPDRFSGSGSGTDFTLKISRVEAEDVGVYYCGQGTQVPYTFGQGTKLEIKRTVAAPSVFIFPPSDEQLKSGTASVVCLLNNFYPREAKVQWKVDNALQSGNSQESVTEQDSKDSTYSLSSTLTLSKADYEKHKVYACEVTHQGLSSPVTKSFNRGEC
B2: TR01H082-E2702GsKsc/GCH065-E2704sEpsc/L0011-k0 (bispecific antibody, human IgG4 S228P, kappa, N297A)
heavy 1: B1 heavy 1 with V11L, G16R, V62Y, A75D, I81L, I111A
heavy 2: B1 heavy 2
light: B1 light
B3: TR01H113-E2702GsKsc/GCH094-E2704sEpsc/L0011-k0 (bispecific antibody, human IgG4 S228P, kappa, N297A)
heavy 1: B1 heavy 1
heavy 2: B1 heavy 2 with I37V, P40A, I48M, P54E
light: B1 light
B4: TR01H040-E2702GsKsc/H0610-E2704sEpsc/L0203-k0 (bispecific antibody, human IgG4 S228P, kappa, N297A)
heavy 1: B1 heavy 1 with V11L, G16R, V62Y, A104S, G106S, I111A
heavy 2: B1 heavy 2 with T19K, E43Q, P54K, E62Q
light: B1 light with P28S, L29P, L38I
B5: TR01H084-E2702GsKsc/GCH094-E2704sEpsc/L0011-k0 (bispecific antibody, human IgG4 S228P, kappa, N297A)
heavy 1: B1 heavy 1 with V62Y
heavy 2: B1 heavy 2 with I37V, P40A, I48M, P54E
light: B1 light
B6: TR01H109-E2702GsKsc/GCH094-E2704sEpsc/L0011-k0 (bispecific antibody, human IgG4 S228P, kappa, N297A)
heavy 1: B1 heavy 1 with V11L, G16R, A75D, I81L, I111A
heavy 2: B1 heavy 2 with I37V, P40A, I48M, P54E
light: B1 light
B7: TR01H067-E2702GsKsc/GCH054-E2704sEpsc/L0222-k0 (bispecific antibody, human IgG4 S228P, kappa, N297A)
heavy 1: B1 heavy 1 with V11L, G16R, V62Y, A75D, I81L, G106S, I111A
heavy 2: B1 heavy 2 with P54E
light: B1 light with P28S, L29P, L38I, H39Q, G94Y
B8: TR01H113-E2702sKsc/GCH065-E2704sEpsc/L0011-k0 (bispecific antibody, human IgG4 S228P, kappa, N297A)
heavy 1: B1 heavy 1 with R437H
heavy 2: B1 heavy 2
light: B1 light
B9: TR01H109-E2702GsKsc/GCH065-E2704sEpsc/L0011-k0 (bispecific antibody, human IgG4 S228P, kappa, N297A)
heavy 1: B1 heavy 1 with V11L, G16R, A75D, I81L, I111A
heavy 2: B1 heavy 2
light: B1 light
B10: TR01H082-E2702GsKsc/GCH094-E2704sEpsc/L0201-k0 (bispecific antibody, human IgG4 S228P, kappa, N297A)
heavy 1: B1 heavy 1 with V11L, G16R, V62Y, A75D, I81L, I111A
heavy 2: B1 heavy 2 with I37V, P40A, I48M, P54E
light: B1 light with L29P
B11: TR01H082-E2702GsKsc/GCH094-E2704sEpsc/L0011-k0 (bispecific antibody, human IgG4 S228P, kappa, N297A)
heavy 1: B1 heavy 1 with V11L, G16R, V62Y, A75D, I81L, I111A
heavy 2: B1 heavy 2 with I37V, P40A, I48M, P54E
light: B1 light
B12: TR01H067-E2702GsKsc/GCH054-E2704sEpsc/L0201-k0 (bispecific antibody, human IgG4 S228P, kappa, N297A)
heavy 1: B1 heavy 1 with V11L, G16R, V62Y, A75D, I81L, G106S, I111A
heavy 2: B1 heavy 2 with P54E
light: B1 light with L29P
B13: TR01H040-E2702GsKsc/H0610-E2704sEpsc/L0201-k0 (bispecific antibody, human IgG4 S228P, kappa, N297A)
heavy 1: B1 heavy 1 with V11L, G16R, V62Y, A104S, G106S, I111A
heavy 2: B1 heavy 2 with T19K, E43Q, P54K, E62Q
light: B1 light with L29P
B14: TR01H040-E2702GsKsc/H0610-E2704sEpsc/L0000-k0 (bispecific antibody, human IgG4 S228P, kappa, N297A)
heavy 1: B1 heavy 1 with V11L, G16R, V62Y, A104S, G106S, I111A
heavy 2: B1 heavy 2 with T19K, E43Q, P54K, E62Q
light: B1 light with P28S
B15: TR01H084-E2702GsKsc/GCH065-E2704sEpsc/L0011-k0 (bispecific antibody, human IgG4 S228P, kappa, N297A)
heavy 1: B1 heavy 1 with V62Y
heavy 2: B1 heavy 2
light: B1 light

Each binder was assayed against extracellular matrix (BD Matrigel) (assay: ECL on Matrigel-coated plate, relative to MRAH-G1d/MRAL-k0).

Compared with B1, B2 is lower in ECM binding ratio (standard = 1): 2.5 for the first, 1.7 for the second.

First: B3
Second: B4
The ECM binding ratio (standard = 1) of the first is higher: 1.6 for the first, 0.8 for the second.

Going from B5 to B6, the ECM binding ratio (standard = 1) falls from 1.2 to 0.4.

First: B7
Second: B8
The ECM binding ratio (standard = 1) of the first is higher: 0.6 for the first, 0.3 for the second.

Going from B9 to B10, the ECM binding ratio (standard = 1) rises from 0.7 to 1.1.

Compared with B11, B12 is lower in ECM binding ratio (standard = 1): 0.7 for the first, 0.5 for the second.

B13 and B14 are the same in ECM binding ratio (standard = 1): 0.8 for the first, 0.8 for the second.

B15 showed an ECM binding ratio (standard = 1) of 1.3.
